The experiment addresses Hen egg white lysozyme (HEL) (UniProt P00698). The experiment in a line: isothermal titration calorimetry. The settings on record: pH 8.0, 25.0 °C, no added salt (10 mM buffer only), 10 mM Tris. Background: In ITC the heat of successive injections is recorded.
Chain of UniProt P00698 (P00698 whole entry): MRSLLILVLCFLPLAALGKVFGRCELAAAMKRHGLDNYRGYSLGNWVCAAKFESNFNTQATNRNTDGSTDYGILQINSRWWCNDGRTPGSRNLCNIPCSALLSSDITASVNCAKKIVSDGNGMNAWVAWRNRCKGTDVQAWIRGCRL

In the case of “HyHEL-10 (HH10) monoclonal antibody, whole IgG1”, the ΔH was -20.5 kcal/mol.

These data come from PMC2713044.
